This note sets out measurements from PMC5428876, “The role of Lon-mediated proteolysis in the dynamics of mitochondrial nucleic acid-protein complexes”.

In data set [1] the target is T1, Saccharomyces cerevisiae mtDNA packaging protein Abf2 lacking the mitochondrial targeting sequence (S. cerevisiae), Q02486.
T1 chain: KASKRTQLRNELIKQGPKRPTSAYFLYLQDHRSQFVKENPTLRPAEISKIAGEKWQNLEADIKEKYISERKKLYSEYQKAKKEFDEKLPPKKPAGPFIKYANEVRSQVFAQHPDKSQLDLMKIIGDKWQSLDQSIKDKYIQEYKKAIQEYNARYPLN
Nature of the data set: SEC; final purification step of Abf2 on Superdex 75 10/300 GL in buffer B (50 mM ammonium acetate, pH 7.3, 500 mM KCl) with 5% (v/v) glycerol. The settings on record: remark: other sources report otherwise.

Data set [2] addresses T2, Abf2 (Saccharomyces cerevisiae, UniProt Q02486 27-183, del1-26).
T2 sequence: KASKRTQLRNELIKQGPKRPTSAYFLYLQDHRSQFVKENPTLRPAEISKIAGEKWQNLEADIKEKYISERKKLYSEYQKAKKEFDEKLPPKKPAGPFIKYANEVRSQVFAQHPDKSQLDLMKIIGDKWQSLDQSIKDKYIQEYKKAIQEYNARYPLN
The data set is described as follows: EMSA; 25 mM Tris-HCl pH 7.4, 100 mM NaCl, 0.1 mg/ml BSA, 10 min, 30 C (Abf2) or 37 C (TFAM); Cy3 probes 75 nM, ssDNA 10 uM, dsDNA 4 uM; Mgm101 as in Pevala et al. The settings on record: protein: recombinant, tags: 6xHis-GST removed by PreScission, chain copies: 2, label: 5' Cy3. Background: In EMSA bound probe runs differently from free probe, usually more slowly.

B1: Saccharomyces cerevisiae mtDNA packaging protein Abf2 lacking the mitochondrial targeting sequence, Q02486 27-183 (natural protein)
chain: KASKRTQLRNELIKQGPKRPTSAYFLYLQDHRSQFVKENPTLRPAEISKIAGEKWQNLEADIKEKYISERKKLYSEYQKAKKEFDEKLPPKKPAGPFIKYANEVRSQVFAQHPDKSQLDLMKIIGDKWQSLDQSIKDKYIQEYKKAIQEYNARYPLN
As for B1, in data set [1], the stoichiometry N is 2.

B2: dsDNA 49 bp (dsDNA)
DNA 1: AGCTACCATGCCTGCACGAATTAAGCAATTCGTAATCATGGTCATAGCT
DNA 2: AGCTATGACCATGATTACGAATTGCTTAATTCGTGCAGGCATGGTAGCT
As for B2, the binding result in data set [2] (blunt) is recorded as “binds”.

B3: 3' flap (structured_DNA)
DNA 1: AGCTACCATGCCTGCACGAATTAAGCAATTCGTAATCATGGTCATAGCT
DNA 2: AATTCGTGCAGGCATGGTAGCT
DNA 3: AGCTATGACCATGATTACGAATTGCTTGGAATCCTGACGAACTGTAG
B3: the binding result in data set [2] (flap 1:2 1:3, 3' flap 20 nt on strand 3) is listed as “binds”.

B4: Y-form (structured_DNA)
DNA 1: AGCTACCATGCCTGCACGAATTAAGCAATTCGTAATCATGGTCATAGCT
DNA 2: AGCTATGACCATGATTACGAATTGCTTGGAATCCTGACGAACTGTAG
For the molecule B4, in data set [2] (Y-form), the binding result is on record as “binds”.

B5: fork (structured_DNA)
DNA 1: AGCTACCATGCCTGCACGAATTAAGCAATTCGTAATCATGGTCATAGCT
DNA 2: AGCTATGACCATGATTACGAATTGCTTGGAATCCTGACGAACTGTAG
DNA 3: CTACAGTTCGTCAGGATTCC
DNA 4: AATTCGTGCAGGCATGGTAGCT
On to B5, for which, in data set [2] (fork), the binding result is given as “binds”.

B6: 5' overhang (mixed)
DNA 1: AGCTACCATGCCTGCACGAATTAAGCAATTCGTAATCATGGTCATAGCT
DNA 2: AGCTATGACCATGATTACGAATTGCTT
On to B6, for which, in data set [2] (5' overhang 22 nt), the binding result was “binds”.

B7: 3' overhang (mixed)
DNA 1: AGCTACCATGCCTGCACGAATTAAGCAATTCGTAATCATGGTCATAGCT
DNA 2: AATTCGTGCAGGCATGGTAGCT
Consider B7, for which the binding result in data set [2] (3' overhang 27 nt) is recorded as “binds”.

B8: 5' flap (structured_DNA)
DNA 1: AGCTACCATGCCTGCACGAATTAAGCAATTCGTAATCATGGTCATAGCT
DNA 2: AGCTATGACCATGATTACGAATTGCTT
DNA 3: GATGTCAAGCAGTCCTAAGGAATTCGTGCAGGCATGGTAGCT
Turning to B8, the binding result in data set [2] (flap 1:2 1:3, 5' flap 20 nt on strand 3) is reported as “binds”.

In general, stoichiometry N refers to the number of molecules, sites or subunits per partner or assembly.
